Decrease in transport activity (H+ influx, HPTS proteoliposome flux assay) data for one molecule are collected here from US20250009878A1.

This assay addresses WT MCT1/BSG-2 complex (mouse) (mouse) (UniProt P53986). Briefly: cell-based or functional assay.
Sequence of UniProt P53986 (P53986 whole entry, chain 1 of 2): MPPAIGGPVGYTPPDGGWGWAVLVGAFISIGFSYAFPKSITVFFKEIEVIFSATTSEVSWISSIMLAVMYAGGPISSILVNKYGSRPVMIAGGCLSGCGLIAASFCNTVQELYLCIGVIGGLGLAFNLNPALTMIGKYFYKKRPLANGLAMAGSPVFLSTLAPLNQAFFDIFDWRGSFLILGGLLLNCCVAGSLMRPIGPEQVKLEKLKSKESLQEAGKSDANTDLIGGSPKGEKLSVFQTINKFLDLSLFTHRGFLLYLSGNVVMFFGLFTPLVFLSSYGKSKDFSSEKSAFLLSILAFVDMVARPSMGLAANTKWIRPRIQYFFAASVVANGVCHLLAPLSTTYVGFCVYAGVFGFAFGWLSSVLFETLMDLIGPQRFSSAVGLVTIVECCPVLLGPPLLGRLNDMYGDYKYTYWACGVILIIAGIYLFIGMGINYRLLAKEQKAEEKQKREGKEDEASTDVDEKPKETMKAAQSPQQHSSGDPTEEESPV
Sequence of UniProt P53986 (P18572 other isoform, or with tags, fused parts or gaps, chain 2 of 2, further chain): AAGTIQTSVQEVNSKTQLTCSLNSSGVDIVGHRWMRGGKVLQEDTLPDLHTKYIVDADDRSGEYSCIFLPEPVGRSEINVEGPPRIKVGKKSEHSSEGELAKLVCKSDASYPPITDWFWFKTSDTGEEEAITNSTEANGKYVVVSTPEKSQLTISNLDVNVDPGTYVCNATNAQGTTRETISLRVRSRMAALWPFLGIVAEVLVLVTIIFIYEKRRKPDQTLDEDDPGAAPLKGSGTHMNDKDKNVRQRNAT

B1: WZHAb10 (antibody, human IgG1, kappa, V domains shown)
VH: QVQLVQSGAEVKKPGASVKVSCKASGYTFTNYWIHWVRQAPGQGLEWMGMIHPNSGSINYNEKFKTRVTMTRDTSTSTVYMELSSLRSEDTAVYYCARVGSGSLDYWGQGTLVTVSS
VL: EIVLTQSPATLSLSPGERATLSCRASQSISDYLHWYQQKPGQAPRLLIKYVSQSISGIPARFSGSGSGTYFTLTISSLEPEDVAVYYCQNGEEAPYTFGQGTKLEIKR
Molecule B1 registered a decrease in transport activity (H+ influx, HPTS proteoliposome flux assay) of 75%.
